Measured values as given in FireProtDB (doi:10.1021/bi9901228).

Conditions: Homo sapiens; pH 2.7; Thermal; DSC; glycine 0.05 M; reversible: yes; whole UniProt chain shown

B1: Lysozyme C wild type, P61626 (protein)
chain: MKALIVLGLVLLSVTVQGKVFERCELARTLKRLGMDGYRGISLANWMCLAKWESGYNTRATNYNAGDRSTDYGIFQINSRYWCNDGKTPGAVNACHLSCSALLQDNIADAVACAKRVVRDPQGIRAWVAWRNRCQNRDVRQYVQGCGV
  Tm: 64.9 °C
  heat capacity change of unfolding: 1.58 kcal/mol/K
  unfolding enthalpy (calorimetric): 114 kcal/mol
